From paper PMC2915670

Experiments:
[1] = target: FMDV 2C(61–318) (foot-and-mouth disease virus, type [change])
[2] = target: FMDV 2C(34-318) (Foot-and-mouth disease virus type O1K, UniProt P03305 1141-1425); experiment: EMSA

Molecule FMDV 2C(61–318) (domain or fragment) has an ATPase activity (pmol Pi/pmol protein/min) [1] of 0.46.

Molecule AAUUCUAAGGGCCAGCGAGA (ssRNA) [20-base ssRNA] has a Kd [2] of ~5 µM.

CGCGAAUAAUUU (ssRNA) [12-base ssRNA]: binds [2].
